{"source": "the RNAGym collection of RNA variant scans (doi:10.7554/elife.80360)", "parents": {"B1": {"name": "CPEB3 Ribozyme (parent)", "chain": "GGGGGCCACAGCAGAAGCGUUCACGUCGCGGCCCCUGUCAGAUUCUGGUGAAUCUGCGAAUUCUGCUGU"}}}
{"variants_of": "B1", "assay": "self-cleavage, relative activity (ratio to wild type); higher = more cleavage; co-transcriptional"}
{"variant": "G31C G68A", "self-cleavage": 0.515}
{"variant": "G31U G68C", "self-cleavage": 0.958}
{"variant": "G31U G68U", "self-cleavage": 0.974}
{"variant": "C32A U69A", "self-cleavage": 0.965}
{"variant": "C32A U69G", "self-cleavage": 0.983}
{"variant": "G31U C54A", "self-cleavage": 0.306}
{"variant": "G30U G37U", "self-cleavage": 0.166}
{"variant": "G30C U43A", "self-cleavage": 0.438}
{"variant": "C32G G65U", "self-cleavage": 0.267}
{"variant": "C32A U43G", "self-cleavage": 0.374}
{"variant": "G30A C45A", "self-cleavage": 0.807}
{"variant": "C32G G48C", "self-cleavage": 0.604}
{"variant": "G31A U61C", "self-cleavage": 0.327}
{"variant": "G31A U69A", "self-cleavage": 0.991}
{"variant": "G31A U69C", "self-cleavage": 1.03}
{"variant": "C32U C39G", "self-cleavage": 0.996}
{"variant": "C32U C39A", "self-cleavage": 0.915}
{"variant": "G30U A42G", "self-cleavage": 0.27}
{"variant": "C32G C54U", "self-cleavage": 0.594}
{"variant": "G30A U46G", "self-cleavage": 0.888}
{"variant": "G31C C54U", "self-cleavage": 0.308}
{"variant": "C32A G41C", "self-cleavage": 0.322}
{"variant": "C32U C34U", "self-cleavage": 0.924}
{"variant": "C32U C34G", "self-cleavage": 0.413}
{"variant": "G30C C45G", "self-cleavage": 0.578}
{"variant": "G31A A60C", "self-cleavage": 0.304}
{"variant": "G31A A60U", "self-cleavage": 0.322}
{"variant": "G30A U36C", "self-cleavage": 0.449}
{"variant": "G30A U36G", "self-cleavage": 0.166}
{"variant": "G31A U46C", "self-cleavage": 0.9}
{"variant": "G31A U46G", "self-cleavage": 0.962}
{"variant": "G31C C32G", "self-cleavage": 0.249}
{"variant": "G31U A60C", "self-cleavage": 0.291}
{"variant": "G31A G37U", "self-cleavage": 0.213}
{"variant": "G31A C63A", "self-cleavage": 0.32}
{"variant": "C32A A59U", "self-cleavage": 0.445}
{"variant": "C32G A51G", "self-cleavage": 0.48}
{"variant": "C32A C45U", "self-cleavage": 0.753}
{"variant": "C32A C45A", "self-cleavage": 0.586}
{"variant": "C32U C63G", "self-cleavage": 0.933}
{"variant": "G31C G41U", "self-cleavage": 0.217}
{"variant": "G30C G50U", "self-cleavage": 0.679}
{"variant": "G30C G50A", "self-cleavage": 0.621}
{"variant": "G30C G50C", "self-cleavage": 0.536}
{"variant": "C32G U49G", "self-cleavage": 0.371}
{"variant": "C32A U36G", "self-cleavage": 0.263}
{"variant": "G30C U62C", "self-cleavage": 0.424}
{"variant": "C32G G56A", "self-cleavage": 0.354}
{"variant": "C32G G56C", "self-cleavage": 0.218}
{"variant": "C32G G56U", "self-cleavage": 0.308}
{"variant": "C32A G56C", "self-cleavage": 0.478}
{"variant": "G31U G37A", "self-cleavage": 0.206}
{"variant": "G30U C63U", "self-cleavage": 0.279}
{"variant": "G30C C35A", "self-cleavage": 0.254}
{"variant": "G30C C35U", "self-cleavage": 0.398}
{"variant": "G30U G50C", "self-cleavage": 0.294}
{"variant": "G30U G50A", "self-cleavage": 0.335}
{"variant": "G30U G50U", "self-cleavage": 0.47}
{"variant": "G31U U67C", "self-cleavage": 0.939}
{"variant": "G31C C33U", "self-cleavage": 0.45}
{"variant": "G30U C34A", "self-cleavage": 0.259}
{"variant": "G30C A51U", "self-cleavage": 0.61}
{"variant": "C32G U61G", "self-cleavage": 0.342}
{"variant": "C32G U61C", "self-cleavage": 0.285}
{"variant": "G31C U62C", "self-cleavage": 0.258}
{"variant": "G31C U62A", "self-cleavage": 0.151}
{"variant": "G30A G31U", "self-cleavage": 0.215}
{"variant": "G30A G31A", "self-cleavage": 0.365}
{"variant": "C32G C39G", "self-cleavage": 0.389}
{"variant": "C32G C39A", "self-cleavage": 0.282}
{"variant": "G31A G48A", "self-cleavage": 0.945}
{"variant": "G31A G48C", "self-cleavage": 0.9}
{"variant": "G30A U61C", "self-cleavage": 0.39}
{"variant": "G30A U61G", "self-cleavage": 0.447}
{"variant": "G30U U69C", "self-cleavage": 0.865}
{"variant": "G30U U69G", "self-cleavage": 0.792}
{"variant": "G31U U49G", "self-cleavage": 0.421}
{"variant": "C32A G58U", "self-cleavage": 0.914}
{"variant": "G30C G48U", "self-cleavage": 0.706}
{"variant": "G30C U61C", "self-cleavage": 0.242}
{"variant": "G30C U61A", "self-cleavage": 0.258}
{"variant": "C32A C66G", "self-cleavage": 0.708}
{"variant": "G31C A42C", "self-cleavage": 0.227}
